Test results: PMC2175121

Molecular target: cell-surface GalNAcPTase (chicken (endogenous in E9 chick retina cells))

## Full-length neurocan fusion protein (RP) (natural protein)
  inhibition of N-cadherin-mediated adhesion of E9 retina cells, RP at 20 μg/ml: 60%
